Assay results taken from US20230314433A1 (KURUME UNIVERSITY, published 2023).

Columns and labels:
[1] = molecular target: T1, recombinant human MDA5 protein (human, UniProt Q9BYX4 1-1025); assay: electrochemiluminescence sandwich immunoassay (MSD), H46 coated as primary (capture) mAb
T1 construct: Expressed in SF9 cells with baculovirus; also called pPSC8/human MDA5 product; MDA5 standard; not shown: N-terminal 6X His tag, GST and turbo 3C protease cleavage site
T1 sequence: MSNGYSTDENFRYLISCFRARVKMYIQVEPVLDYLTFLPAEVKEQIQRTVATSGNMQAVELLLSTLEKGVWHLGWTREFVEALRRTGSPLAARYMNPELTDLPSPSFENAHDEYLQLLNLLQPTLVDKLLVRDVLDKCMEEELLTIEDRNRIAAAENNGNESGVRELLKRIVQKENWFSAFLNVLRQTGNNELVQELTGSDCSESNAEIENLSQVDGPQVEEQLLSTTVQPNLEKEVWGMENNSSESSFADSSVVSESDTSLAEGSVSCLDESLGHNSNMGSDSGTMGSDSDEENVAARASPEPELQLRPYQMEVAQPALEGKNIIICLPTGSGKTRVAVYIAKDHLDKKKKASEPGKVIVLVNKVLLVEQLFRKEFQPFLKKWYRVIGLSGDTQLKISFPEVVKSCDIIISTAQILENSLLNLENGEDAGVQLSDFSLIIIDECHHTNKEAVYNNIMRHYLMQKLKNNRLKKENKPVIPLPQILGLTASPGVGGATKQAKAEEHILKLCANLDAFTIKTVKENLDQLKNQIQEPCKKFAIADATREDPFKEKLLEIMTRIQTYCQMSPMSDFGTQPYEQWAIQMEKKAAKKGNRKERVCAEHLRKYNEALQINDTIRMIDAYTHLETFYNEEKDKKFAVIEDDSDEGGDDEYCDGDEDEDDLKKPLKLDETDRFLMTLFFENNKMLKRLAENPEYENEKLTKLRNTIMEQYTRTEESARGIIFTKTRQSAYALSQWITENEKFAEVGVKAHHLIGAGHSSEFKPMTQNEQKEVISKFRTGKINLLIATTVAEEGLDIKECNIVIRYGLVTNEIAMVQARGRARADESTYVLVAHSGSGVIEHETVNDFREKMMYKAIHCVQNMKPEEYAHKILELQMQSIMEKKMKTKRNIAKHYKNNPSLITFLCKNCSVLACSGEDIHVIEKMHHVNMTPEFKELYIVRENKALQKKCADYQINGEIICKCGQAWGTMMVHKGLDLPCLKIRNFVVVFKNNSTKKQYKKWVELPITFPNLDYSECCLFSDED
Method: The human MDA5 sandwich immunoassay system was established using electrochemiluminescence in a MESOSCALE DISCOVERY (registered trademark) assay system (Meso Scale Japan, Tokyo, Japan). Briefly, mouse anti-human MDA5 monoclonal antibody (clone H46) was used as the primary mAb, dissolved at 2 µg/mL in phosphate-buffered saline (PBS), dispensed into plates in aliquots of 25 µL/well, and left undisturbed overnight at 4° C. The plates were then washed three times with 150 µL Quantikine Wash Buffer 1 (R&D Systems, Minneapolis, MN, USA). Block Ace blocking solution (100 µL/well; Nacalai Tesque, Kyoto, Japan) was added and incubated for at least one hour at room temperature to prevent nonspecific adhesion of the secondary antibody to the plates. The plates were then washed thrice. The samples were aliquoted at 25 µL/well. Recombinant human MDA5 protein diluted to 50 ng/mL, 10 ng/mL, 2 ng/mL, 400 pg/mL, 80 pg/mL, 16 pg/mL, and 3.2 pg/mL was used as a standard. After 1 h of incubation at room temperature, each well was washed thrice. Next, 2 µg/mL biotin-labeled mouse anti-human MDA5 secondary mAb (clone H27) was added at 25 µL/well, followed by incubation for 1 h at room temperature after which each well was washed three times. […] The amount of human MDA5 protein was measured using MESO QuickPlex SQ 120 according to the manufacturer’s protocol.

[2] = molecular target: T2, human MDA5 protein (full-length, about 120 kDa) (human, UniProt Q9BYX4 1-1025); assay: Western blot of normal lung and lung cancer tissues, mAb at 1 ug/mL
T2 construct: Endogenous cytoplasmic protein in human tissue sections, tissue lysates and PBMCs (band of about 120 kDa); also called IFIH1
T2 sequence: T1 sequence
Method: Western blotting analysis was performed by using NuPAGE (registered trademark) 7% Tris-Acetate Midi Gel (Thermo Fisher Scientific, Tokyo, Japan) according to the manufacture’s protocol. Anti-human MDA5 mAb (clone H27 or clone H46, 1 µg/mL) was used for immunoblotting, as previously reported (T. Hoshino, et al., Am J Respir Crit Care Med 176 (2007) 49-62).

B1: mouse anti-human MDA5 monoclonal antibody (H46) (antibody, V domains shown)
VH: EFQLQQSGPELVKPGASVKISCKASGYSFTDYNMNWVKQSNGKSLEWIGVINPDYGSTSYNKKFKGKATLTVDQSSTTAYMQLNSLTSEDSAVYFCARDRYGNYFDYWGQGTTLTVSS
VL: QIVLTQSPAIMSASPGEKVTMTCSASSSLNYMHWYLQKPGTSPKRWIYDTSKLASGVPARFSGSGSGTSYSLTISSMEAEDAATYYCHQRSSYPITFGSGTKLEIK
notes: Mouse IgG2b from a hybridoma; also called clone H46; H46 [mouse IgG2b]
B1: binds [1]; binds [2].
